Legend:
[1] = molecular target: T1, human DLL3 on cells (human, UniProt Q9NYJ7 27-618); assay: cell-based or functional assay
T1 sequence: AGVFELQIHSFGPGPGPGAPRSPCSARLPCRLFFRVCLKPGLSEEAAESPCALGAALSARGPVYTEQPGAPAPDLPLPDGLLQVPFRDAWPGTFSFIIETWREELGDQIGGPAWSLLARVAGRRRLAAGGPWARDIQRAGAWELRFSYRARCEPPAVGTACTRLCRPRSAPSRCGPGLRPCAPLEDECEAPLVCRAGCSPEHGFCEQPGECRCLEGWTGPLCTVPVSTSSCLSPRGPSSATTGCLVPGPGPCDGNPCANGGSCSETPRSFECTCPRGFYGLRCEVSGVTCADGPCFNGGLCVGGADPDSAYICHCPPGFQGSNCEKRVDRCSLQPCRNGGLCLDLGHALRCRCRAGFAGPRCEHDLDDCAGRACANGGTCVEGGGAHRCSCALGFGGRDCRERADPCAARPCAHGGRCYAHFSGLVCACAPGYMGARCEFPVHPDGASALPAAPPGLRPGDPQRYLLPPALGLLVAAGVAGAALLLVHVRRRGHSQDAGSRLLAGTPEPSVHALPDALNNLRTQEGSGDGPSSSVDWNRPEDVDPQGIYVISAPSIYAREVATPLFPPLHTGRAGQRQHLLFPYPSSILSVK

[2] = molecular target: T2, monkey DLL3 protein (screening antigen) (cynomolgus monkey, UniProt Q9NYJ7 27-492 (human entry), limits assumed); assay: ELISA, hybridoma supernatant
T2 chain: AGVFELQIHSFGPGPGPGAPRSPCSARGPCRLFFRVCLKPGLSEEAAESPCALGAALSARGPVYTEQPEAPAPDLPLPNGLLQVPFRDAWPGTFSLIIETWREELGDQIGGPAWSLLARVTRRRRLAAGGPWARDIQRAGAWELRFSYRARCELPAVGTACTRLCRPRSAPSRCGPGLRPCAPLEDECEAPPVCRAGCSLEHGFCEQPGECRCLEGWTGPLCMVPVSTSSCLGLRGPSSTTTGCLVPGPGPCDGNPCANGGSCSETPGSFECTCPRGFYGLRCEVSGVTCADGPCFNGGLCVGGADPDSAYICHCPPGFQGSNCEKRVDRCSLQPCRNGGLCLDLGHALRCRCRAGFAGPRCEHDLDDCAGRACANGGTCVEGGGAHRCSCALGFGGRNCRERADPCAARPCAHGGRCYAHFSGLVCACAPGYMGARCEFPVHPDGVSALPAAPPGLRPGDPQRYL
Experimental: (§1) Spleen lymphocytes and the myeloma cells, Sp2/0 cells (ATCC® CRL-8287™), were fused by following an optimized electrofusion procedure to obtain hybridoma cells. Based on the growth density of hybridoma cells, the hybridoma culture supernatant was assayed using an ELISA method with binding to DLL3 protein and a FACS method with binding to DLL3 CHO-s cells.

[3] = molecular target: T3, human DLL3 protein (screening antigen) (human, UniProt Q9NYJ7 27-492, limits assumed); assay: ELISA, hybridoma supernatant
T3 construct: Biotinylated in the phage panning
T3 sequence: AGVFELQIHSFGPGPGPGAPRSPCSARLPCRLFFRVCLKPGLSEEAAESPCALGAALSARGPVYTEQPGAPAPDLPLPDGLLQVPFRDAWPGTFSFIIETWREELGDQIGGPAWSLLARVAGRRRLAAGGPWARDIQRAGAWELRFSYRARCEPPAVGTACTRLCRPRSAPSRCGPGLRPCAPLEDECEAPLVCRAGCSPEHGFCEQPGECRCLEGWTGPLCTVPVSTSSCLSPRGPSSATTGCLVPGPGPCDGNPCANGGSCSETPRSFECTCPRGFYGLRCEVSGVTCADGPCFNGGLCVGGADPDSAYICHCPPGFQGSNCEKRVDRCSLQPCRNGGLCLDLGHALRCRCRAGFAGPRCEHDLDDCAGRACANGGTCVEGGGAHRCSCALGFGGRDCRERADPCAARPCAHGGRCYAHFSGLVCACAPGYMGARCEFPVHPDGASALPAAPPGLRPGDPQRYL
Experimental: as §1

[4] = molecular target: T1, human DLL3 on cells; assay: FACS, DLL3 CHO-s cells, hybridoma supernatant
Experimental: as §1

[5] = molecular target: T2, monkey DLL3 protein (screening antigen); assay: phage ELISA
[6] = molecular target: T3, human DLL3 protein (screening antigen); assay: phage ELISA

B1: BI-764532 (bispecific antibody, human IgG1, kappa, lambda, L234A L235A)
chain 1: DIQMTQSPSAMSASVGDRVTITCRASQGISNYLVWFQQKPGKAPKRLIYAVSSLYSGVPSRFSGSGSGTEFTLTISSLQPEDFATYYCLQHDSYPYTFGQGTKLEIKRTVAAPSVFIFPPSDEQLKSGTASVVCLLNNFYPREAKVQWKVDNALQSGNSQESVTEQDSKDSTYSLSSTLTLSKADYEKHKVYACEVTHQGLSSPVTKSFNRGECGGGGSEGKSSGSGSESKSTEGKSSGSGSESKSTGGGGSQVQLVQSGAEVKKPGASVKVSCKASGYTFTSYYVHWVRQAPGQGLEWMVIINPGGGTTSYAQKFLGRVTMTRDTSTNTVYMELKSLRSEDTAVYYCARGEAVTGNYFYYGMDVWGQGTTVTVSSASTKGPSVFPLAPSSKSTSGGTAALGCLVKDYFPEPVTVSWNSGALTSGVHTFPAVLQSSGLYSLSSVVTVPSSSLGTQTYICNVNHKPSNTKVDKRVEPKSCDKTHTCPPCPAPEAAGGPSVFLFPPKPKDTLMISRTPEVTCVVVDVSHEDPEVKFNWYVDGVEVHNAKTKPREEQYNSTYRVVSVLTVLHQDWLNGKEYKCKVSNKALPAPIEKTISKAKGQPREPQVYTLPPSREEMTKNQVSLWCLVKGFYPSDIAVEWESNGQPENNYKTTPPVLDSDGSFFLYSKLTVDKSRWQQGNVFSCSVMHEALHNHYTQKSLSLSPG
chain 2: EAVVTQEPSLTVSPGGTVTLTCRSSTGAVTTSNYANWVQEKPGQLPRGLIGGTNKRAPWVPARFSGSLLGGKAALTLSGAQPEDEAEYFCALWYSNLWVFGGGTKLTVLGQPKAAPSVTLFPPSSEELQANKATLVCLISDFYPGAVKVAWKADGSPVNTGVETTTPSKQSNNKYAASSYLSLTPEQWKSHRSYSCQVTHEGSTVEKTVAPAECSGGGGSEGKSSGSGSESKSTEGKSSGSGSESKSTGGGGSEVQLVESGGGLVQPGGSLKLSCAASGFTFNTYAMNWVRQAPGKGLEWVARIRSKYNNYATYYADSVKDRFTISRDDSKNTAYLQMNNLKTEDTAVYYCVRHGNFGNSYVSWFAYWGQGTLVTVSAASTKGPSVFPLAPSSKSTSGGTAALGCLVKDYFPEPVTVSWNSGALTSGVHTFPAVLQSSGLYSLSSVVTVPSSSLGTQTYICNVNHKPSNTKVDKRVEPKSCDKTHTCPPCPAPEAAGGPSVFLFPPKPKDTLMISRTPEVTCVVVDVSHEDPEVKFNWYVDGVEVHNAKTKPREEQYNSTYRVVSVLTVLHQDWLNGKEYKCKVSNKALPAPIEKTISKAKGQPREPQVYTLPPSREEMTKNQVSLSCAVKGFYPSDIAVEWESNGQPENNYKTTPPVLDSDGSFFLVSKLTVDKSRWQQGNVFSCSVMHEALHNRFTQKSLSLSPG
IC50, PBMC killing of SHP77/lucG cells [1]: 0.0446 nM | Imax (%), PBMC killing of SHP77/lucG cells [1]: 97%

B2: mAb6 (antibody, V domains shown)
VH: EVQLQQSGPVLVKPGASVKMSCKASGYTFTDYYMNWVKQSHGKSLEWIGIINPYSGVTIYNHKFKGKATLTVDKSSNTAYMELNSLTSEDSAVYYCARQDSLLDYAMDYWGQGTSVTVSS
VL: DILMTQSPSSMSVSLGDTVSITCHASQGISGNMGWLQQKPGKSFKGLIYHGANLEDGVPSRFSGSGSGADYSLTISSLESEDFADYYCVQYAQFPYTFGGGTKLEIK
notes: murine hybridoma antibody (culture supernatant)
binding result [2]: binds

B3: mAb98 (antibody, V domains shown)
VH: EVQLVESGGGLVKPGGSLKLSCAASGFTFSDYGIHWVRQAPEKGLEWVAYISSGGYTIYYADTVKGRFTISRDNAKNTLFLQMTSLRSEDTAMYYCARGDYDDIFYTMDYWGQGTSVTVSS
VL: DIQMTQTTSSLSASLGDRVTISCRASRDITKFLNWYQQKPDGTVKLLIYYTSRLHSGVPSRFSGSGSGTDYSLTISNLDQEDIATYFCQQGNTLPWTFGGGTKLDIK
notes: as for B2
binding result [2]: binds

B4: mAb110 (antibody, V domains shown)
VH: EVQLQQSGPVLVKPGASVKMSCKTSGYTFTDYYMNWVKQSHGKSLEWIGIINPYNGGTSYTQKFKGKATLTVDKSSSTAYMELNSLTSEDSTVYFCARHFYDSSYLTYSTMDYWGQGTSVTVSS
VL: NIVMTQSPKSMSMSVGERVTLSCKASENVGIFVSWYQQKPKQSPKLLIYGASNRYTGVPDRFTGSGSATDFTLTISSVQAEDLADYYCGQSHSYPLTFGTGTKLELK
notes: as for B2
binding result [2]: binds | binding result [3]: binds | binding result [4]: binds

B5: mAb30 (antibody, V domains shown)
VH: EVRLQQFGPVLVKPGASVKMSCKASGYTFTDYYMNWVKQSHGKSLEWIGIINPYNGDTSYNQKFRGKATLTVDKSSSTAYMELNSLTSEDSAVYYCARYHYGPHLEGYFDVWGTGTTLTVSS
VL: DIVMTQSPKSMSMSVGERVTLSCKASENVGYVSWYQQKPEQSPKLLIYGASNRYTGVPDRFTGSGSATDFTLTISSVQAEDLADYHCGQSYSYPLTFGSGTKLEIK
binding result [5]: binds | binding result [6]: binds

From patent publication US20250376519A1 (JIANGSU HENGRUI PHARMACEUTICALS, published 2025)
